Measured values taken from patent US11485991B2, “Multifunctional recombinant nucleotide dependent glycosyltransferase protein and its method of glycosylation thereof” (Council of Scientific & Industrial Research, priority 2016, dated 2022).

test system: synthetic acceptor substrates; assay: In vitro glycosyltransferase (GT) assay of GT-CTH mutants with MS detection of glycosylated product; assay type: biochemical; conditions: purified mutant of GT-CTH, acceptor substrate and UDP-glucose, MS analysis
Experimental: Purified recombinant nucleotide dependent glycosyltransferase (0.2 μM) is incubated with synthetic acceptor substrates (5 μM) and 100 μM UDP-glucose in a reaction buffer containing 20 mM HEPES, pH 7.5, 50 mM NaCl, 1 mM TCEP and 1 mM MgCl2. The reaction is incubated at 25° C. for 12 h. Each assay reaction was accompanied by control reaction (without enzyme). The reactions are quenched with 5% TFA to pH 2, desalted using ZipTip C18, and vacuum dried and analyzed using mass spectrometry.
Mass spectrometry has been used to detect glycosylation in product of glycosylation assay reactions using Matrix Assisted Laser Desorption Ionization Time of flight mass spectrometry (MALDI-TOF MS) and Liquid chromatography electrospray ionization mass spectrometry (LC/ESI-MS) techniques. MALDI-TOF MS has carried out at AB Sciex 5800 MALDI TOF/TOF and LC/ESI-MS has carried out at 6550 iFunnel QTOF LC/MS (Agilent Technologies) using Zorbax Eclipse plus C8 column (3.0×150 mm, 5μ) of Agilent technologies. For MALDI-TOF analysis and LC-ESI/MS analysis, vacuum dried samples are reconstituted in water and 0.1% formic acid respectively.
Various mutations are introduced in recombinant nucleotide dependent glycosyltransferase (GT-CTH) using side directed mutagenesis (Quick change lightning Mutagenesis kit, Agilent) using GTpET28a plasmid as template. The sequence of mutants is verified through DNA sequencing. The mutated recombinant plasmids are transformed into E. coli Lemo21(DE3) and E. coli BL21(DE3) cells for expression. The over expression, purification and functional analysis of mutants of recombinant nucleotide dependent glycosyltransferase proteins are performed using the above mentioned methods. The list of mutants of recombinant nucleotide dependent glycosyltransferase, created in accordance with present invention identifies D102, R136, W147, D152, A153, D154 residues critical for activity of recombinant nucleotide dependent glycosyltransferase (GT-CTH). Replacement of these residues to alanine results into abolishment of the glycosyltransferase activity.

Row | Molecule | In vitro glycosyltransferase activity status
1 | GT-CTH D131A (protein) MGYSENFIANDWFNVEVFNKNKYTLTNQENKDVTELWLQILKGLKFPNELKETVSYSKNLKELSLKTHAEVSVCIIAKNEQDSIRKCINSIYEFSDEIIFIDTGSIDSTKKIVKEIASEKVKIFDYTWQDAFSDARNYSIQKASKEWILIIDADEYVSSDELIKLRLLIDMLDRFKFKDSLRVSCAIYQLDNVITHGQSRLFRNNNKIKYYGLIHEELRNNKGLDPIFNVESEITFFHDGYKEILRKEKCERNIRLLAKMLEKEPDNVRWAYLYCRDSFSINSNIDFEKILLPFLIKNMDESISCENILLTNYTHLILFLITKKYIIDGKSSLASKCIEVLEKMLPNSSDVTFYKFLNKQHSLYEQQFEFLKEVIQFRKNNEYDQYSQIGCNLLHYDLLISGLLFDVKSYDYSYQYFLKLDLANYFSELEIPDEYKMLINKYRENESLEHHHHHH | Active
2 | GT-CTH F132A (protein) MGYSENFIANDWFNVEVFNKNKYTLTNQENKDVTELWLQILKGLKFPNELKETVSYSKNLKELSLKTHAEVSVCIIAKNEQDSIRKCINSIYEFSDEIIFIDTGSIDSTKKIVKEIASEKVKIFDYTWQDDASDARNYSIQKASKEWILIIDADEYVSSDELIKLRLLIDMLDRFKFKDSLRVSCAIYQLDNVITHGQSRLFRNNNKIKYYGLIHEELRNNKGLDPIFNVESEITFFHDGYKEILRKEKCERNIRLLAKMLEKEPDNVRWAYLYCRDSFSINSNIDFEKILLPFLIKNMDESISCENILLTNYTHLILFLITKKYIIDGKSSLASKCIEVLEKMLPNSSDVTFYKFLNKQHSLYEQQFEFLKEVIQFRKNNEYDQYSQIGCNLLHYDLLISGLLFDVKSYDYSYQYFLKLDLANYFSELEIPDEYKMLINKYRENESLEHHHHHH | Active
3 | GT-CTH D130A, D131A (protein) MGYSENFIANDWFNVEVFNKNKYTLTNQENKDVTELWLQILKGLKFPNELKETVSYSKNLKELSLKTHAEVSVCIIAKNEQDSIRKCINSIYEFSDEIIFIDTGSIDSTKKIVKEIASEKVKIFDYTWQAAFSDARNYSIQKASKEWILIIDADEYVSSDELIKLRLLIDMLDRFKFKDSLRVSCAIYQLDNVITHGQSRLFRNNNKIKYYGLIHEELRNNKGLDPIFNVESEITFFHDGYKEILRKEKCERNIRLLAKMLEKEPDNVRWAYLYCRDSFSINSNIDFEKILLPFLIKNMDESISCENILLTNYTHLILFLITKKYIIDGKSSLASKCIEVLEKMLPNSSDVTFYKFLNKQHSLYEQQFEFLKEVIQFRKNNEYDQYSQIGCNLLHYDLLISGLLFDVKSYDYSYQYFLKLDLANYFSELEIPDEYKMLINKYRENESLEHHHHHH | Inactive
4 | GT-CTH D131A, F132D (protein) MGYSENFIANDWFNVEVFNKNKYTLTNQENKDVTELWLQILKGLKFPNELKETVSYSKNLKELSLKTHAEVSVCIIAKNEQDSIRKCINSIYEFSDEIIFIDTGSIDSTKKIVKEIASEKVKIFDYTWQDADSDARNYSIQKASKEWILIIDADEYVSSDELIKLRLLIDMLDRFKFKDSLRVSCAIYQLDNVITHGQSRLFRNNNKIKYYGLIHEELRNNKGLDPIFNVESEITFFHDGYKEILRKEKCERNIRLLAKMLEKEPDNVRWAYLYCRDSFSINSNIDFEKILLPFLIKNMDESISCENILLTNYTHLILFLITKKYIIDGKSSLASKCIEVLEKMLPNSSDVTFYKFLNKQHSLYEQQFEFLKEVIQFRKNNEYDQYSQIGCNLLHYDLLISGLLFDVKSYDYSYQYFLKLDLANYFSELEIPDEYKMLINKYRENESLEHHHHHH | Inactive
5 | GT-CTH R136A (protein) MGYSENFIANDWFNVEVFNKNKYTLTNQENKDVTELWLQILKGLKFPNELKETVSYSKNLKELSLKTHAEVSVCIIAKNEQDSIRKCINSIYEFSDEIIFIDTGSIDSTKKIVKEIASEKVKIFDYTWQDDFSDAANYSIQKASKEWILIIDADEYVSSDELIKLRLLIDMLDRFKFKDSLRVSCAIYQLDNVITHGQSRLFRNNNKIKYYGLIHEELRNNKGLDPIFNVESEITFFHDGYKEILRKEKCERNIRLLAKMLEKEPDNVRWAYLYCRDSFSINSNIDFEKILLPFLIKNMDESISCENILLTNYTHLILFLITKKYIIDGKSSLASKCIEVLEKMLPNSSDVTFYKFLNKQHSLYEQQFEFLKEVIQFRKNNEYDQYSQIGCNLLHYDLLISGLLFDVKSYDYSYQYFLKLDLANYFSELEIPDEYKMLINKYRENESLEHHHHHH | Inactive
6 | GT-CTH W147A (protein) MGYSENFIANDWFNVEVFNKNKYTLTNQENKDVTELWLQILKGLKFPNELKETVSYSKNLKELSLKTHAEVSVCIIAKNEQDSIRKCINSIYEFSDEIIFIDTGSIDSTKKIVKEIASEKVKIFDYTWQDDFSDARNYSIQKASKEAILIIDADEYVSSDELIKLRLLIDMLDRFKFKDSLRVSCAIYQLDNVITHGQSRLFRNNNKIKYYGLIHEELRNNKGLDPIFNVESEITFFHDGYKEILRKEKCERNIRLLAKMLEKEPDNVRWAYLYCRDSFSINSNIDFEKILLPFLIKNMDESISCENILLTNYTHLILFLITKKYIIDGKSSLASKCIEVLEKMLPNSSDVTFYKFLNKQHSLYEQQFEFLKEVIQFRKNNEYDQYSQIGCNLLHYDLLISGLLFDVKSYDYSYQYFLKLDLANYFSELEIPDEYKMLINKYRENESLEHHHHHH | Inactive
7 | GT-CTH D152A (protein) MGYSENFIANDWFNVEVFNKNKYTLTNQENKDVTELWLQILKGLKFPNELKETVSYSKNLKELSLKTHAEVSVCIIAKNEQDSIRKCINSIYEFSDEIIFIDTGSIDSTKKIVKEIASEKVKIFDYTWQDDFSDARNYSIQKASKEWILIIAADEYVSSDELIKLRLLIDMLDRFKFKDSLRVSCAIYQLDNVITHGQSRLFRNNNKIKYYGLIHEELRNNKGLDPIFNVESEITFFHDGYKEILRKEKCERNIRLLAKMLEKEPDNVRWAYLYCRDSFSINSNIDFEKILLPFLIKNMDESISCENILLTNYTHLILFLITKKYIIDGKSSLASKCIEVLEKMLPNSSDVTFYKFLNKQHSLYEQQFEFLKEVIQFRKNNEYDQYSQIGCNLLHYDLLISGLLFDVKSYDYSYQYFLKLDLANYFSELEIPDEYKMLINKYRENESLEHHHHHH | Inactive
8 | GT-CTH A153R (protein) MGYSENFIANDWFNVEVFNKNKYTLTNQENKDVTELWLQILKGLKFPNELKETVSYSKNLKELSLKTHAEVSVCIIAKNEQDSIRKCINSIYEFSDEIIFIDTGSIDSTKKIVKEIASEKVKIFDYTWQDDFSDARNYSIQKASKEWILIIDRDEYVSSDELIKLRLLIDMLDRFKFKDSLRVSCAIYQLDNVITHGQSRLFRNNNKIKYYGLIHEELRNNKGLDPIFNVESEITFFHDGYKEILRKEKCERNIRLLAKMLEKEPDNVRWAYLYCRDSFSINSNIDFEKILLPFLIKNMDESISCENILLTNYTHLILFLITKKYIIDGKSSLASKCIEVLEKMLPNSSDVTFYKFLNKQHSLYEQQFEFLKEVIQFRKNNEYDQYSQIGCNLLHYDLLISGLLFDVKSYDYSYQYFLKLDLANYFSELEIPDEYKMLINKYRENESLEHHHHHH | Inactive
9 | GT-CTH D154A (protein) MGYSENFIANDWFNVEVFNKNKYTLTNQENKDVTELWLQILKGLKFPNELKETVSYSKNLKELSLKTHAEVSVCIIAKNEQDSIRKCINSIYEFSDEIIFIDTGSIDSTKKIVKEIASEKVKIFDYTWQDDFSDARNYSIQKASKEWILIIDAAEYVSSDELIKLRLLIDMLDRFKFKDSLRVSCAIYQLDNVITHGQSRLFRNNNKIKYYGLIHEELRNNKGLDPIFNVESEITFFHDGYKEILRKEKCERNIRLLAKMLEKEPDNVRWAYLYCRDSFSINSNIDFEKILLPFLIKNMDESISCENILLTNYTHLILFLITKKYIIDGKSSLASKCIEVLEKMLPNSSDVTFYKFLNKQHSLYEQQFEFLKEVIQFRKNNEYDQYSQIGCNLLHYDLLISGLLFDVKSYDYSYQYFLKLDLANYFSELEIPDEYKMLINKYRENESLEHHHHHH | Inactive
10 | GT-CTH Y241A (protein) MGYSENFIANDWFNVEVFNKNKYTLTNQENKDVTELWLQILKGLKFPNELKETVSYSKNLKELSLKTHAEVSVCIIAKNEQDSIRKCINSIYEFSDEIIFIDTGSIDSTKKIVKEIASEKVKIFDYTWQDDFSDARNYSIQKASKEWILIIDADEYVSSDELIKLRLLIDMLDRFKFKDSLRVSCAIYQLDNVITHGQSRLFRNNNKIKYYGLIHEELRNNKGLDPIFNVESEITFFHDGAKEILRKEKCERNIRLLAKMLEKEPDNVRWAYLYCRDSFSINSNIDFEKILLPFLIKNMDESISCENILLTNYTHLILFLITKKYIIDGKSSLASKCIEVLEKMLPNSSDVTFYKFLNKQHSLYEQQFEFLKEVIQFRKNNEYDQYSQIGCNLLHYDLLISGLLFDVKSYDYSYQYFLKLDLANYFSELEIPDEYKMLINKYRENESLEHHHHHH | Active
